Experimental data: patent publication US20250034271A1

Molecular target: Histidine-tagged human CD40 protein (hCD40-His) (human) (UniProt P25942)
Assay: SPR, Biacore T200; antibody on Protein A chip, hCD40-His injected; 1:1 fit

Sequence of Histidine-tagged human CD40 protein (hCD40-His) (human) (P25942 21-193 limits assumed): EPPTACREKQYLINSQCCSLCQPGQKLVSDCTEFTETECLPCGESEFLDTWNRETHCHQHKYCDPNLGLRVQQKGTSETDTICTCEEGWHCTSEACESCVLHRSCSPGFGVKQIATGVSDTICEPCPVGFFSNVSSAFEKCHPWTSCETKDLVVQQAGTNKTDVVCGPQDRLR

- Kd: 20 nM
- koff: 0.00833 s⁻¹
- kon: 417000 M⁻¹ s⁻¹
B1: Dacetuzumab (antibody, part only; not given: constant regions, V domains shown, not shown: another chain or arm of the molecule)
VH: EVQLVESGGGLVQPGGSLRLSCAASGYSFTGYYIHWVRQAPGKGLEWVARVIPNAGGTSYNQKFKGRFTLSVDNSKNTAYLQMNSLRAEDTAVYYCAREGIYWWGQGTLVTVSS
VL: DIQMTQSPSSLSASVGDRVTITCRSSQSLVHSNGNTFLHWYQQKPGKAPKLLIYTVSNRFSGVPSRFSGSGSGTDFTLTISSLQPEDFATYFCSQTTHVPWTFGQGTKVEIK
